In US20220000982A1 (Novo Nordisk, published 2022):
*1 amine or outer side, *2 acyl side, *3 side chain or, on linkers, in order; H or OH if unused. Where no end group is shown, it is not given here. Side-chain parts run from the residue outwards. [ ]: non-standard residue; d: D form. The star is where a group is joined. C20 diacid = O=C(O)CCCCCCCCCCCCCCCCCCC(=O)*; C18 diacid = O=C(O)CCCCCCCCCCCCCCCCC(=O)*; γGlu = O=C(O)[C@H](CCC(=O)[*:2])N[*:1]; Trx = NC[C@H]1CC[C@H](C(=O)O)CC1; Nle = CCCC[C@H](N)C(=O)O; AEEA = NCCOCCOCC(=O)O; Aib = CC(C)(N)C(=O)O

Tests used:
Experiment in all cases: cell-based or functional assay
human glucagon receptor = human glucagon receptor (human, UniProt P47871 26-477)
human GLP-1 receptor = human GLP-1 receptor (human, UniProt P43220 24-463)
human GIP receptor = target: T1, human GIP receptor (human, UniProt P48546 22-466)
T1 sequence (looked up): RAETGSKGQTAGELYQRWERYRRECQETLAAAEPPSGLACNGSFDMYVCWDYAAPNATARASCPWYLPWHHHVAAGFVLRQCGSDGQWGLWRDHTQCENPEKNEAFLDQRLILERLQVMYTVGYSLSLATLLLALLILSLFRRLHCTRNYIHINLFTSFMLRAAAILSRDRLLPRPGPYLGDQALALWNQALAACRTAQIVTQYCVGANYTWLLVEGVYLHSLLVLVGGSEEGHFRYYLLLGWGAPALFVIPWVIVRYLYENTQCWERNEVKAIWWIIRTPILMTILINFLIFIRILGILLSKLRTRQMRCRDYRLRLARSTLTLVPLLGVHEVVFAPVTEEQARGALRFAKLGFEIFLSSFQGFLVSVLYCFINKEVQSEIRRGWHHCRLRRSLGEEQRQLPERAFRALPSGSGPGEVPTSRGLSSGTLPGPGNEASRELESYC

Sequence of human glucagon receptor (P47871 26-477): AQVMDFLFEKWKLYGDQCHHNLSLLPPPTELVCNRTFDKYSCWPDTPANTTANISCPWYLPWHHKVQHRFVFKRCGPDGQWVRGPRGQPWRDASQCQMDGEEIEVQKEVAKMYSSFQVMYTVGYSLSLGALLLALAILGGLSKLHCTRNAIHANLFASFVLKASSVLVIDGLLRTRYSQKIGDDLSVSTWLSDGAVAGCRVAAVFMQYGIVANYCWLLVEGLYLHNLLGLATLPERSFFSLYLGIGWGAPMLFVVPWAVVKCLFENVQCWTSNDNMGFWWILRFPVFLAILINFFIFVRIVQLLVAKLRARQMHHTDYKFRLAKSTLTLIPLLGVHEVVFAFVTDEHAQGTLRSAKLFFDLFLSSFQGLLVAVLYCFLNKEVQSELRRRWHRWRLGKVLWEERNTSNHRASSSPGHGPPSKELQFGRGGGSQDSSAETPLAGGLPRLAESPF

## hGIP(1-42) (from UniProt P09681 52-93) (ligand)
Human glucagon receptor
  EC50, hGcg-R CRE Luc, 0.2% HSA: > 100 nM
Human GLP-1 receptor
  EC50, hGLP-1-R CRE Luc, 0.2% HSA: > 100 nM

## Y[Aib]EGTFISDYSIA[Nle]DKIRQQDFVK([AEEA-AEEA-γGlu-Trx-C20 diacid])WLLAQKG
Human GIP receptor
  EC50, hGIP-R CRE Luc, 0.2% HSA: 0.0447 nM

## Y[Aib]EGTFISDYSIA[Nle]DKIRQQDFVK([AEEA-AEEA-γGlu-Trx-C20 diacid])WLLAQKGKEEDWKHNITQ
Human GIP receptor
  EC50, hGIP-R CRE Luc, 0.2% HSA: 0.014 nM

## Y[Aib]EGTFISDYSIA[Nle]DKIHQQDFVK([AEEA-AEEA-γGlu-C18 diacid])WLLAQKGKEEDWKHNITQ
Human GIP receptor
  EC50, hGIP-R CRE Luc, 0.2% HSA: 0.00545 nM
Human glucagon receptor
  EC50, hGcg-R CRE Luc, 0.2% HSA: > 100 nM
Human GLP-1 receptor
  EC50, hGLP-1-R CRE Luc, 0.2% HSA: > 100 nM

## Ac-[dY]AEGTFISDYSIA[Nle]DKIHQQDFVK([γGlu-γGlu-γGlu-Trx-C20 diacid])WLLAQKP-NH2
Human GIP receptor
  EC50, hGIP-R CRE Luc, 0.2% HSA: 0.0712 nM

## Ac-[dY]AEGTFISDYSIA[Nle]DKIHQ[Aib]DFVK([γGlu-γGlu-γGlu-Trx-C20 diacid])WLLAQKG
Human GIP receptor
  EC50, hGIP-R CRE Luc, 0.2% HSA: 0.153 nM

## Ac-[dY]AEGTFISDYSIA[Nle]DKIRQQDFVK([γGlu-γGlu-γGlu-Trx-C20 diacid])WLLAQKG
Human GIP receptor
  EC50, hGIP-R CRE Luc, 0.2% HSA: 0.18 nM

## Ac-[dY]AEGTFISDYSIA[Nle]DKIRQQDFVK([AEEA-AEEA-γGlu-γGlu-γGlu-C18 diacid])WLLAQKG
Human GIP receptor
  EC50, hGIP-R CRE Luc, 0.2% HSA: 0.0431 nM

## Y[Aib]EGTFISDYSIA[Nle]DKIRQQDFVK([γGlu-γGlu-γGlu-Trx-C20 diacid])WLLAQKG
Human GIP receptor
  EC50, hGIP-R CRE Luc, 0.2% HSA: 0.0721 nM

## Y[Aib]EGTFISDYSIA[Nle]DKIRQ[Aib]DFVK([γGlu-γGlu-γGlu-C18 diacid])WLLAQKG
Human GIP receptor
  EC50, hGIP-R CRE Luc, 0.2% HSA: 0.0094 nM

## Ac-[dY][Aib]EGTFISDYSIA[Nle]DKIRQQDFVK([γGlu-γGlu-γGlu-γGlu-Trx-C20 diacid])WLLAQKP-NH2
Human GIP receptor
  EC50, hGIP-R CRE Luc, 0.2% HSA: 0.0261 nM
Human glucagon receptor
  EC50, hGcg-R CRE Luc, 1% HSA (*): > 100 nM
Human GLP-1 receptor
  EC50, hGLP-1-R CRE Luc, 1% HSA (*): > 10 nM

## Y[Aib]EGTFISDYSIA[Nle]DKIHQQDFVK([γGlu-γGlu-γGlu-C18 diacid])WLLAQKGKENDWKHNITQ
Human GIP receptor
  EC50, hGIP-R CRE Luc, 0.2% HSA: 0.0213 nM
Human glucagon receptor
  EC50, hGcg-R CRE Luc, 1% HSA (*): > 100 nM
Human GLP-1 receptor
  EC50, hGLP-1-R CRE Luc, 1% HSA (*): > 100 nM

## Ac-[dY]AEGTFISDYSIA[Nle]DKIRQQDFVK([γGlu-γGlu-γGlu-C18 diacid])WLLAQKG
Human GIP receptor
  EC50, hGIP-R CRE Luc, 0.2% HSA: 0.0489 nM

## Ac-[dY]AEGTFISDYSIA[Nle]DKIRQQDFVK([γGlu-γGlu-γGlu-Trx-C20 diacid])WLLAQKP-NH2
Human GIP receptor
  EC50, hGIP-R CRE Luc, 0.2% HSA: 0.0762 nM

## Y[Aib]EGTFISDYSIA[Nle]DAIRQQDFVK([γGlu-γGlu-γGlu-Trx-C20 diacid])WLLAQKG
Human GIP receptor
  EC50, hGIP-R CRE Luc, 0.2% HSA: 0.266 nM

## Y[Aib]EGTFISDYSIA[Nle]DKIRQ[Aib]DFVK([γGlu-γGlu-γGlu-Trx-C20 diacid])WLLAQKG
Human GIP receptor
  EC50, hGIP-R CRE Luc, 0.2% HSA: 0.0712 nM

## HAEGTFTSDVSSYLEGQAAKEFIAWLVKGRG (ligand) [hGLP-1(7-37)]
Human GIP receptor
  EC50, hGIP-R CRE Luc, 0.2% HSA: > 100 nM

## Y[Aib]EGTFISDYSIA[Nle]DKIHQQDFVK([γGlu-γGlu-γGlu-Trx-C20 diacid])WLLAQKP-NH2
Human GIP receptor
  EC50, hGIP-R CRE Luc, 0.2% HSA: 0.0675 nM

## Y[Aib]EGTFISDYSIA[Nle]DKIHQEDFVK([γGlu-γGlu-γGlu-γGlu-C18 diacid])WLLAQKG
Human GIP receptor
  EC50, hGIP-R CRE Luc, 0.2% HSA: 0.158 nM

## Y[Aib]EGTFISDYSIA[Nle]DKIRQQDFVK([AEEA-AEEA-γGlu-C18 diacid])WLLAQKGKEEDWKHNITQ
Human GIP receptor
  EC50, hGIP-R CRE Luc, 0.2% HSA: 0.00412 nM
Human glucagon receptor
  EC50, hGcg-R CRE Luc, 0.2% HSA: > 100 nM
Human GLP-1 receptor
  EC50, hGLP-1-R CRE Luc, 0.2% HSA: > 100 nM

## Y[Aib]EGTFISDYSIA[Nle]DKIRQQDFVK([γGlu-γGlu-γGlu-Trx-C20 diacid])WLLAQKP-NH2
Human GIP receptor
  EC50, hGIP-R CRE Luc, 0.2% HSA: 0.0615 nM

## Ac-[dY]AEGTFISDYSIA[Nle]DKIRQQDFVK([AEEA-AEEA-γGlu-C18 diacid])WLLAQKG
Human GIP receptor
  EC50, hGIP-R CRE Luc, 0.2% HSA: 0.0304 nM

## Y[Aib]EGTFISDYSIA[Nle]DKIHQQDFVK([AEEA-AEEA-γGlu-C18 diacid])WLLAQKGKEDDWKHNITQ
Human GIP receptor
  EC50, hGIP-R CRE Luc, 0.2% HSA: 0.00597 nM
Human glucagon receptor
  EC50, hGcg-R CRE Luc, 0.2% HSA: > 100 nM
Human GLP-1 receptor
  EC50, hGLP-1-R CRE Luc, 0.2% HSA: > 100 nM

## Y[Aib]EGTFISDYSIA[Nle]DKIHQQDFVK([γGlu-γGlu-γGlu-C18 diacid])WLLAQKGKEEDWKHNITQ
Human GIP receptor
  EC50, hGIP-R CRE Luc, 0.2% HSA: 0.009 nM
Human glucagon receptor
  EC50, hGcg-R CRE Luc, 0.2% HSA: > 100 nM
Human GLP-1 receptor
  EC50, hGLP-1-R CRE Luc, 0.2% HSA: > 100 nM

## Ac-[dY][Aib]EGTFISDYSIA[Nle]DKIHQQDFVK([γGlu-γGlu-γGlu-Trx-C20 diacid])WLLAQKP-NH2
Human GIP receptor
  EC50, hGIP-R CRE Luc, 0.2% HSA: 0.0384 nM

## Ac-YAEGTFISDYSIA[Nle]DKIRQQDFVK([γGlu-γGlu-γGlu-C18 diacid])WLLAQKG
Human GIP receptor
  EC50, hGIP-R CRE Luc, 0.2% HSA: 0.546 nM

## Ac-[dY]AEGTFISDYSIADDKIRQEDFVK([AEEA-AEEA-γGlu-C18 diacid])WLLAQKG
Human GIP receptor
  EC50, hGIP-R CRE Luc, 0.2% HSA: 0.0915 nM

## Y[Aib]EGTFISDYSIA[Nle]DKIRQEDFVK([γGlu-γGlu-γGlu-Trx-C20 diacid])WLLAQKG
Human GIP receptor
  EC50, hGIP-R CRE Luc, 0.2% HSA: 0.252 nM

## YAEGTFISDYSIAMDKIHQQDFVNWLLAQKG (ligand) [hGIP(1-31)]
Human GIP receptor
  EC50, hGIP-R CRE Luc, 0.2% HSA: 0.00224 nM

## Ac-[dY]AEGTFISDYSIA[Nle]DKIHQEDFVK([γGlu-γGlu-γGlu-Trx-C20 diacid])WLLAQKG
Human GIP receptor
  EC50, hGIP-R CRE Luc, 0.2% HSA: 0.547 nM

## Y[Aib]EGTFISDYSIA[Nle]DKIRQEDFVK([γGlu-γGlu-γGlu-C18 diacid])WLLAQKG
Human GIP receptor
  EC50, hGIP-R CRE Luc, 0.2% HSA: 0.0629 nM

## Y[Aib]EGTFISDYSIA[Nle]DKIHQEDFVK([γGlu-γGlu-γGlu-γGlu-Trx-C20 diacid])WLLAQKG
Human GIP receptor
  EC50, hGIP-R CRE Luc, 0.2% HSA: 0.81 nM

## Y[Aib]EGTFISDYSIA[Nle]DKIHQQDFVK([γGlu-γGlu-γGlu-C18 diacid])WLLAQKG
Human GIP receptor
  EC50, hGIP-R CRE Luc, 0.2% HSA: 0.0499 nM
Human glucagon receptor
  EC50, hGcg-R CRE Luc, 1% HSA (*): > 100 nM
Human GLP-1 receptor
  EC50, hGLP-1-R CRE Luc, 1% HSA (*): > 100 nM

## Ac-[dY]AEGTFISDYSIA[Nle]DKIRQEDFVK([AEEA-AEEA-γGlu-C18 diacid])WLLAQKG
Human GIP receptor
  EC50, hGIP-R CRE Luc, 0.2% HSA: 0.025 nM

## Ac-[dY][Aib]EGTFISDYSIA[Nle]DKIRQQDFVK([γGlu-γGlu-γGlu-C18 diacid])WLLAQKP-NH2
Human GIP receptor
  EC50, hGIP-R CRE Luc, 0.2% HSA: 0.0212 nM
Human GLP-1 receptor
  EC50, hGLP-1-R CRE Luc, 0.2% HSA: > 100 nM

## Y[Aib]EGTFISDYSIA[Nle]DKIRQQDFVK([γGlu-γGlu-γGlu-C18 diacid])WLLAQKGKENDWKHNITQ
Human GIP receptor
  EC50, hGIP-R CRE Luc, 0.2% HSA: 0.0201 nM
Human glucagon receptor
  EC50, hGcg-R CRE Luc, 1% HSA (*): > 100 nM
Human GLP-1 receptor
  EC50, hGLP-1-R CRE Luc, 1% HSA (*): > 100 nM

## Y[Aib]EGTFISDYSIA[Nle]DKIRQQDFVK([γGlu-γGlu-γGlu-Trx-C20 diacid])WLLAQKGKEEDWKHNITQ
Human GIP receptor
  EC50, hGIP-R CRE Luc, 0.2% HSA: 0.022 nM

## Y[Aib]EGTFISDYSIA[Nle]DAIRQQDFVK([γGlu-γGlu-γGlu-C18 diacid])WLLAQKG
Human GIP receptor
  EC50, hGIP-R CRE Luc, 0.2% HSA: 0.0725 nM
